Measurements taken from the Human Domainome abundance scans (Beltran et al. 2025).
± gives the uncertainty stated by the source.

B1: Chromodomain-helicase-DNA-binding protein 5, residues 411 to 463; numbered along this chain, Q8TDI0 (parent)
chain: EEDDHMEFCRVCKDGGELLCCDACPSSYHLHCLNPPLPEIPNGEWLCPRCTCP

Variants of: B1
Assay: abundance fitness (aPCA) (normalised: wild type 0, dead -1); higher = more abundant; growth selection in yeast, the domain comes from the species named
Conditions: Homo sapiens

Variant	abundance fitness
D4W	0.005 ± 0.047
D4K	0.184 ± 0.047
D4Y	0.252 ± 0.077
D4S	-0.081 ± 0.041
D4A	-0.186 ± 0.041
D4T	0.216 ± 0.043
D4M	0.156 ± 0.043
D4V	-0.14 ± 0.042
D4L	0.11 ± 0.042
P48A	-0.27 ± 0.085
P48W	-0.412 ± 0.12
P48V	-0.24 ± 0.075
P48N	-0.106 ± 0.12
P48T	-0.004 ± 0.092
C21G	-0.809 ± 0.067
C21W	-0.958 ± 0.071
C21D	-0.791 ± 0.1
C21E	-0.873 ± 0.11
P25S	0.022 ± 0.055
P25L	-0.157 ± 0.067
P25T	0.044 ± 0.065
L33I	0.252 ± 0.082
L33Q	-0.484 ± 0.086
L33V	-0.04 ± 0.055
L33R	-0.6 ± 0.053

Variant	abundance fitness
L33S	-0.487 ± 0.061
L33Y	-0.482 ± 0.12
L33T	-0.198 ± 0.049
D3H	-0.015 ± 0.046
D3S	0.155 ± 0.044
Y28F	-0.007 ± 0.046
Y28V	-0.428 ± 0.064
Y28T	-0.542 ± 0.063
Y28E	-0.853 ± 0.083
Y28I	-0.535 ± 0.11
Y28S	-0.679 ± 0.058
Y28K	-0.481 ± 0.05
G15W	-0.087 ± 0.09
G15M	-0.165 ± 0.12
G15L	-0.151 ± 0.064
G15C	-0.517 ± 0.12
G15Q	0.047 ± 0.1
G15R	0.087 ± 0.058
A23P	-0.488 ± 0.22
A23T	0.08 ± 0.054
C24T	-0.464 ± 0.12
C24G	-0.723 ± 0.1
C24Y	-0.606 ± 0.14
C24A	-0.637 ± 0.12
L19I	0.26 ± 0.098

Variant	abundance fitness
L19K	-0.361 ± 0.14
L19P	-1.22 ± 0.38
L19S	-0.537 ± 0.15
I40H	-0.151 ± 0.24
I40C	0.116 ± 0.1
I40K	-0.104 ± 0.18
I40T	0.113 ± 0.13
I40D	-0.534 ± 0.35
I40M	-0.112 ± 0.14
I40P	0.052 ± 0.079
I40Q	0.132 ± 0.12
I40W	-0.633 ± 0.39
I40R	-0.121 ± 0.097
I40G	-0.09 ± 0.098
I40A	-0.206 ± 0.12
R49H	-0.223 ± 0.11
R49I	-0.305 ± 0.11
R49E	0.148 ± 0.054
R49V	0.033 ± 0.044
R49Q	0.156 ± 0.069
R49F	0.011 ± 0.1
C50V	-0.675 ± 0.057
C50S	-0.702 ± 0.053
C50Q	-0.619 ± 0.049
C50G	-0.613 ± 0.05

Variant	abundance fitness
C50T	-0.74 ± 0.064
C50P	-0.517 ± 0.052
E7A	-0.031 ± 0.083
E7V	0.063 ± 0.064
E7S	-0.215 ± 0.084
E44F	-0.361 ± 0.085
E44Y	-0.232 ± 0.081
E44S	0.031 ± 0.059
E44T	0.02 ± 0.056
E44A	-0.095 ± 0.048
E44L	-0.186 ± 0.058
E44G	-0.027 ± 0.045
F8H	-0.163 ± 0.1
F8C	-0.242 ± 0.097
F8M	-0.131 ± 0.075
F8Q	-0.17 ± 0.051
F8K	-0.409 ± 0.12
F8W	-0.346 ± 0.083
F8V	-0.152 ± 0.076
L18W	-0.972 ± 0.17
L18T	-0.076 ± 0.099
L18D	-0.972 ± 0.32
L18N	-0.932 ± 0.49
L37F	-0.21 ± 0.12
L37M	-0.262 ± 0.098

Variant	abundance fitness
N34H	-0.303 ± 0.2
N34S	0.097 ± 0.06
N34G	-0.169 ± 0.063
N34W	-0.204 ± 0.067
N34V	-0.067 ± 0.073
N34L	-0.015 ± 0.048
N34M	-0.221 ± 0.11
N34I	-0.132 ± 0.15
N34Q	0.021 ± 0.064
R10P	-0.413 ± 0.088
R10Y	0.037 ± 0.061
R10W	-0.212 ± 0.086
R10N	0.026 ± 0.11
R10A	-0.219 ± 0.075
R10K	-0.218 ± 0.12
R10I	-0.089 ± 0.086
N42Q	-0.211 ± 0.15
N42K	-0.144 ± 0.093
N42T	0.014 ± 0.065
N42S	0.058 ± 0.053
N42A	0.011 ± 0.068
M6R	-0.045 ± 0.056
M6A	0.059 ± 0.074
M6S	-0.233 ± 0.081
M6G	-0.09 ± 0.066

Variant	abundance fitness
M6C	-0.069 ± 0.065
M6P	-0.03 ± 0.09
M6W	-0.174 ± 0.076
E17H	-0.138 ± 0.041
E17T	0.03 ± 0.055
E17N	-0.063 ± 0.061
H29C	-0.164 ± 0.082
H29V	-0.882 ± 0.11
H29S	-0.825 ± 0.14
H29K	-1.06 ± 0.25
H29I	-1.2 ± 0.49
P38S	-0.13 ± 0.08
P38F	-0.083 ± 0.21
P38A	0.358 ± 0.22
P38M	-0.563 ± 0.44
P38C	-0.63 ± 0.43
P38H	-0.016 ± 0.27
C12D	-0.574 ± 0.048
C12F	-0.756 ± 0.21
C12E	-0.504 ± 0.049
C12T	-0.581 ± 0.099
C12K	-0.684 ± 0.12
C12A	-0.963 ± 0.061
